The results in this text go back to article PMC11098746 (2024).

No end group written: not given here.

The target in one assay is T1, ADP315.
T1 chain: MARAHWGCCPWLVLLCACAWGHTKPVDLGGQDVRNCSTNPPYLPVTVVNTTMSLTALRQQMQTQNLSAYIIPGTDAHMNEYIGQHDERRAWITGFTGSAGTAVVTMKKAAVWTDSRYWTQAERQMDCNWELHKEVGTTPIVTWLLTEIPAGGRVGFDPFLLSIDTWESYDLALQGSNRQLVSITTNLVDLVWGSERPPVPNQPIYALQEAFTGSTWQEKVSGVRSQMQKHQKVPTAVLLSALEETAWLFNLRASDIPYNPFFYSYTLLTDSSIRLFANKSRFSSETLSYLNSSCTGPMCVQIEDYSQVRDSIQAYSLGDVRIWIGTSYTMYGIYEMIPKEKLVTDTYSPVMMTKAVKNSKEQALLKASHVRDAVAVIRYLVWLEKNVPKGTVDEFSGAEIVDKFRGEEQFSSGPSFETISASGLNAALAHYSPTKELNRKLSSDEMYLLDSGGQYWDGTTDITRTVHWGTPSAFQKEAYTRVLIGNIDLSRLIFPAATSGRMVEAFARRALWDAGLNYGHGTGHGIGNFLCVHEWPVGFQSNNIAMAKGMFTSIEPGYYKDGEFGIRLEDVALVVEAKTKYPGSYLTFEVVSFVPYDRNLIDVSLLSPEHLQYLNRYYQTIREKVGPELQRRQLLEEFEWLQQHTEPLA
The assay is described as follows: AVEXIS screen signal:noise (double-corrected).

In the next assay the target is FGFR4 ectodomain (Homo sapiens, UniProt P22455). The assay is described as follows: AVEXIS normalised luminescence.

B1: ADP258 (protein)
chain: MGFHIQRYIAMMGRGINPKTWKKLWVDSKNKQIIHVYNDVAEFMNNQIAQVVRVYQYRY
modifications: also: human Fc-tagged dimer
Regarding B1, the binding score in the assay with ADP315 was 6.28.

B2: 24 (protein)
chain: FKGNYGEANFAFFQATPASHIEEPQKTESTDAQSNIAQNEEINNAKPLQENIANNQQNSNEQQNNNEQQNNIEQQNNNIQQNNIDTSISHVPNDAIKNPIDNSNIANLDKSNDANNVIKHEENNQAKENNLETIKHTEPLTNQNTNEVKINDHNEHEKNTEENKIEEQYNNINHHSHDINKNQAINNNMNNENADKNVPHLDQSAMSNEKHINEHTTNHPIESHTGENNHDKINEPIPIEHATTPTNEPIPIEHAATPTNEPIPIEHAATPTNEPIHIEHVATPANEPTHSEHATTTTNEPIHIEHAATPTNEHIHNEHATTTTNEPTHNEHAATITHEPTHNEHTTTPTNEPIHNEHATTPTNEPIPIEHIATPANEPTHNEHATTTTNEPTHNEHTTTPTNEPIHNEHATTPTNEPIPIEHIATPANEPTHNEHATTTTNEPTHNEHATTTTNEPTHNEHATTTTNEPIHNEHATATTNEATHNEHATTTTNEPTHNEHSTTPTNEATHSENAATSTNEQHSHDQNTEVHPNDKLALVPFQGIKNPIPSNEAQPIISFPNEDDNHAQNEGSINAPSEGEHNNADNKEGPIITPLEGEQAGTAHKEDVTHKHMVGEHVPPQKTHHGPIITPVGGNHVPPQTHHAHIITPVGGEHAHGQGNNDATYVTMNTDESSSSDTKGEHSNLRSYNKNMNNNHAQRDQYDSDTLNSEGSDDAYSSMQQNFEKNGIDSFKGKGLHVSLRERIIIEIMESAKNGIDGLLKLKDSKDSGKLFMEALEKLNINMKDLKKDKNLISLEVYDKILSTMFKILTEMSFYEDSKFYETLGIKKDILNQALKDIKIKMLRKLGVSYSRLPPIIKHTEGKCAIKDIIISISSKELAQRMAIMFTKWLAPDEYGAVVDYENNVELNVLCSGAPILIQQWKYYQNMLGFEEDKDHAYLGLIDELLVMNKRYSQNKDYVETLEKIKKSKVFKHCTKIMRIGGKVSSVPFNYENVKKPSSSIIGSLGNLIKANIATYYKATAQRINSYFHYTEKKSKKSSPLKIISVCTLLHLTDMLYKCSDENSNGVMDLYNLQLNTLNMKGKMVLQYLVHLKFLTQEKKNQLKEICEPQNGLIDETLTKMLILLSTDSHELLSHELENKGFDEDYIQDEIKNINEADNNIRDKEEDDAEKMIFDDL
modifications: bait human Fc-tagged dimer
On to B2, for which the binding score in the assay with FGFR4 ectodomain is 1.

B3: 21 (protein)
chain: SPGNDNNNVNNDGVVHVLSKNIDVKNLQGTFYEIATNAADKIFPGLACRCTKYEFSGLKRDGNLGYVLINFACARNFIFGEKKSEMTFKLILNKPLDENTATVEEFNAAIYLVQGNQQILLNGNINIIYAELNEQNEFEHLILGGQKSIEPMIIMSKYRTVLLDTYNKLINSLYLAGYEPSLLTWPFIIQTDQTFCD
modifications: bait human Fc-tagged dimer
Turning to B3, the binding score with FGFR4 ectodomain is 1.31.

B4: 13 (protein)
chain: YLSSENQKKTIATVHNNARTNTLKKNNANNNNANDIFGLSPSEVPNLIDDEEEYEILEGVKNNADLTRSTNIDHPSPSSTMIDLDNIITEISKLKKKKLKKEMNNKLEQQTNQNNNAIHHNNENEINTFTQNIKTNSNELKNQDSSNSLISTNSNTMDELLLYSTNSEDNLDISFGELQLYENSDEDTSDYEYVNEDYSVNHIFSNDAEESFNILEDVENIALSSSNRYQYSPIGPYKKKHTKVFENFKMTRNYDEFLKLYNLKDSSDNQEEYYELLAGEPFKLNSYYYRDVKYENVKKYIFKEIYDNIQNIATENKIIVSKKEELFFYFIKSLLKNNFICLSYEEEENLLSESKLLLEAMISKKIQ
modifications: bait human Fc-tagged dimer
In turn, B4 returned a binding score in the assay with FGFR4 ectodomain of 1.16.

B5: 85 (protein)
chain: VKERNNGFPKRGEGRYLFGRNQMKSQDIEKNNKELSNKMDTQDSKQYITYLYHSSICQYCSKVTSMLENNDNVEIIKFKENNKIEDFGKFTKPIVVLLKNINKENSLERSIFYEELKRKGKKVQVPALEVNNIILFESDEIIKFYKKLLQKVSNDDKSSLQNRGNIKNDQKKNNADYDNDYDNDDNNDDNDDDDDNNYNNNNDDGYDYHTS
modifications: bait human Fc-tagged dimer
The molecule B5 had a binding score with FGFR4 ectodomain of 1.22.

B6: 19 (protein)
chain: KNSDTKNNAYNDYYNTYLSKIHSFKAPFNVENLENGWNVDYSSVSTNKHVVLIPSIYNRRGVLYNKNPINSDNFIIEFNFFMERKYYKEKIDEKYYKDEKNDVHEIVYKTNSDDNLATSNKANNKEQKQIKRNGFALWILKDPFVIKEAGSNVNLVLQEEEYNIFGYKNRFNGIGILFQLKKSTNKANNKANNNNNYYYYNNYNDILNVAIILNNGDKSINSDDFTIFKNIPIDMIMINNLIHTKIICNKKEIIIAFYYPKSNNYINTLIMKNNIATENYIAFTSFNYKEDDNKNIDYNDVNNKYYENQNGYLPTFVGIKQVLTFNLNNNNNNNNNININEANINNNNYNNNNNNDNNKINYDQNYNKDISANDINAAFNDVLNNINPEKNTINQAIDVLNSITKLLQKFMNHQINSEKKLLQNINILNEKLQFVQTELKVIKKNLANQAEEPKNLQKMFSTELTGLKNLFHTHTQHHKKNIEDITNKLTKKIERNNELKILTEKAQKLEQIINK
modifications: bait human Fc-tagged dimer
In the case of B6, the binding score in the assay with FGFR4 ectodomain came out at 1.47.

B7: 30 (protein)
chain: QDNKNKVEETHEEQGEMTQEEKDEIYSEFVDYDLNKDGLIDAEEIVVTLKNMKKADFINFFNKVDLDSSGTISIDEYMLFINSN
modifications: bait human Fc-tagged dimer
As for B7, the binding score in the assay with FGFR4 ectodomain was found to be 1.55.

B8: 22 (protein)
chain: RGNQISKCVFYDKRNKDLKQVFYVPTNDVNMYKETIRKLLSREISLLEEPLNENSDSHNMANKKNVANFEEIKKNDENNNRKRKEMEEKLKYIEKYRNYAKGVLKNVEFKCENVDDLKSKVKCNLCVYTEIVNNKHIRQGQIIQIFMNECMYGFYYYDNINQYTQNNEYNNKALKDYNSAQKLDDIYFNIAKDISEGNVNGINFFKQQSSKYHPVCYVTE
modifications: bait human Fc-tagged dimer
Regarding B8, the binding score in the assay with FGFR4 ectodomain stood at 0.879.

B9: 83 (protein)
chain: NKNLKCNFYYNNNNLATYVIKHNRFLSEYQSNFLGGGYSAALKLVNSKKSGTNVNTKYNSENTNTNNNIPESSSTYTNTRLAANNAATTSTTKVTDNNKANIKLTGNNAATINTNSAENTAATKKVTENVITNQILTGNNNAATNTATTEHNNNINTNTNSAENTAATKKVTENVITNQILTGNNNAATNTATTEHNNNINTNTNSADNSNTNTNLADNTATTKKLTDNINTAQNLATSTNTATVSTDNNNINTKPIDNNNADIKSTDNYNTGTKETDNKNTDIKATDNNNIATTTDNTNTNVISTDNSKTNVISTDNSKTNTISTDNDNADTILTDNDNNADIILTDNNNADTISTDNDNADTKATDNNNNANTKATDNNNAKIISPDNNNAKTTSTDNNNNANTKATDNNNAKTISNDNNNAKTISTDNNNAKTISNDNNNANTISTDNNNNNANQYVFANNYNEATSDDELNKDSCDYSEEKENIKSMINAYLDKLDLETVRKIHSDISTCIEKKNNPRNQITHLNNLKNMYNIIKFIVVIYIAFNWAEVIYKYVGKLILAFALYMLIN
modifications: bait human Fc-tagged dimer
In the assay with FGFR4 ectodomain, B9 showed a binding score of 1.24.

B10: 2 (protein)
chain: DFFLRYRTGFIRSRLETYIGNSDVRYNKAFINNRLLNEHAHCDAWSEWSACSKTCDYGIKIRVKISTDQTKSKACSNIAESTICHEHICPRTFEEAEETYLHNKEKEKKKKFRTT
modifications: bait human Fc-tagged dimer
In turn, B10 registered a binding score with FGFR4 ectodomain of 1.02.

B11: 26 (protein)
chain: KCIRLNNRAIYKNKYKNNVHIGTNENIRSIEKYSNVLCNSILCKNDKISSFINQRKNVDDDDESENDDMYESTTAGSSSETDNEADEEENDASDNNNADEEQIENSNNNNADEEQNDASSNDNNDEENEEQDDVMDNDQNDKKIKHSFNLANEAKHTKEERVKEEKKLKIYDFINDKEKRLNFNGDQKDEDNEENDDKDENTLENRNIISKHTSVFPGLYFIGIGYNLLFGNPLGEADSLIDPGYRAQIYLMEWALSKEGIANDLSTLQPVNGWIRKENACSRVESITECSSISDYTKSLSAEAKVSGSYWGIASFSASTGYSSFLHEVTKRSKKTFLVKSNCVKYTIGLPPYIPWDKTTAYKNAVNELPAVFTGLDKESECPSDVYEENKAKSNCENVALWMKFFDIYGTHIIYESQLGGKITKIINVATSSIEQMKKNGVSVKAKIQAQFGFGSAGGSTDVNSANSAANDEQSYDMNEQLIVIGGNPIKDVTKEENLFEWSKTVTNHPMPINIKLTPISDSFDSDDLKESYDKAIIYYSRLYGLSPHDTMQKDDKDIIKILTNADTVTKNSAPPINAQCPHGKVVMFGFSLKQNFWDNTNALKGYNIEVCEAGSNSCTSKQGSSNKYDTSYLYMECGDQPLPFSEQVISESTSTYNTVKCPNDYSILLGFGISSSSGRINSAEYVYSTPCIPGMKSCSLNMNNDNQKSYIYVLCVDTTIWSGVNNLALVALDGAHGKVNRAKKYSDGELVGTCPLDGTVLTGFKVEFHTSSPYVQTPFEKCAKSLKACSVHGSGHAIGIQNFKSLFIYMLCKNNK
modifications: bait human Fc-tagged dimer
In turn, B11 came in with a binding score in the assay with FGFR4 ectodomain of 0.914.

B12: 7 (protein)
chain: GIISGRINIAAEFHINIFVKDYFKKKKLTFVNFVSLCPKGFNIENNKCIPCPIGLYYSNSKSINQCIPCENYRKHSTTLYNSAKSKTECLCKPGYFLKDKRCVKCVAGFYKDQIGNFKCQGTCENTKMSIEVGAKNYEELKCTCKDGYFTEKKKKECIPCPFGNYCIYNPKVKYKADIIRCKNNKLTLHRGSKSPNDCLCSQGYYHDYKMDECELCNYDQYKSHISNDPCVPFISKSLVNQEYLINEPYFQYTNIYIKQTSNIIFAPKKGSKMFHEATLCETGYSYSMNKAICSICRYNNYCLGLDHSSIICPKNSITIKLKSVSALDCLCIKGYGRIIINTNQAFTISCIPCPYNTFQPHHSYGKCIPCPPHTFTKITGATSITECIPKMGYYNIAFEYIYEYSKQQMLNSIPHFIQYYHYFLKNQYEHFA
modifications: bait human Fc-tagged dimer
As for B12, in the assay with FGFR4 ectodomain, the binding score was 0.976.
